One sequence from publication PMC5419741 can be followed below.

For data set [1], the system named is LARP1 DM15 E886 mutant (Homo sapiens), Q6PKG0-3. Put plainly: EMSA. To be noted: 5' m7Gppp cap; Competition assays: 20 mM Tris pH 8, 150 mM NaCl, 10% glycerol, 1 mM DTT, 0.5 ug BSA, 0.5 ug tRNA, 30 min on ice, native gel; EMSA as in Lahr et al. 2015 with ….
The subject of data set [2] is LARP1 DM15 Y922 mutant (Homo sapiens), Q6PKG0-3. Put plainly: EMSA. To be noted: 5' m7Gppp cap; Competition assays: 20 mM Tris pH 8, 150 mM NaCl, 10% glycerol, 1 mM DTT, 0.5 ug BSA, 0.5 ug tRNA, 30 min on ice, native gel; EMSA as in Lahr et al. 2015 with …. A general note: Mobility shift assays separate free from complexed probe on a gel.

For the sequence “CCUCUUUUCCGUGGCGCCUCGGAGGCGUUCAGCUGCUUCAAG [m7Gppp-RPS6 42mer (capped TOP)]”, the dissociation constant (Kd) (usually the concentration at which binding is half-saturated) in data set [1] amounted to 8 µM; in data set [2], 2.6 µM.
